Publication PMC7315649

Biological target: human plasminogen (human)
Assay: SPR; BIAcore T100 at 25°C; plasminogen amine-coupled to a CM-5 chip (5.0 ng/mm^2); dispersin at 2.5–120 μM in HBS-P (10 mM HEPES pH 7.4, 150 mM NaCl, 0.005% P20) at 30 μL/min; 1:1 model

For “recombinant dispersin (mature dispersin of enteroaggregative Escherichia coli strain 17-2) (from UniProt P43464 1-265) (natural protein)”, the Kd was 282 nM, the koff was 0.0016 s⁻¹ and the kon was 5680 M⁻¹ s⁻¹.
